This test addresses T1, rMuIL15Ra (murine IL-15 receptor R&D Systems) (murine), Q60819.
T1 chain: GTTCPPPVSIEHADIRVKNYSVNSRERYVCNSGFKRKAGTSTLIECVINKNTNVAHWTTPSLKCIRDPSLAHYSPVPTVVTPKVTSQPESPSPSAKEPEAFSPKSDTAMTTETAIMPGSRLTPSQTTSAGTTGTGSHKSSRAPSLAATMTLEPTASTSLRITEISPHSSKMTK
Nature of the test: BLI (ForteBio), biotinylated rMuIL15Ra on SA biosensors, rMuIL15 in solution, 1:1 fit. The note with it: remark: other sources report otherwise.

B1: rMuIL15 (R&D Systems), P48346 49-162 (ligand, murine, UniProt P48346 49-162, looked up)
chain: NWIDVRYDLEKIESLIQSIHIDTTLYTDSDFHPSCKVTAMNCFLLELQVILHEYSNMTLNETVRNVLYLANSTLSSNKNVAESGCKECEELEEKTFTEFLQSFIRIVQMFINTS
modifications: here or on the partner: biotinylated with EZ-Link NHS-LC-Biotin (sites not given)
In general, Kd refers to the free concentration of one partner at which half of the binding sites on the other are occupied at equilibrium, for simple one-to-one binding. Low readings indicate higher affinity, high ones lower affinity. Regarding B1, the Kd amounted to 5.57 nM.

(Values after patent US20160206715A1.)
